Measured values from patent US20190031783A1 (AbbVie / Abbott, published 2019).
Positions count from the first letter of the chain named. Values joined by “and” are separate entries in the source; they are usually repeats but may differ in a detail not shown here. Equal values may be shown once. Blank lines part the entries; values can stand above or below the binder they belong to.

What was measured:
[1] = target: T1, purified recombinant human DLL4 extracellular domain (ECD) (human, UniProt Q9NR61 27-529); assay: SPR (Biacore), DVD captured via anti-human Fc, DLL4 ECD injected, 25 C
T1 construct: extracellular domain; also called human DLL4529; huDLL4
Procedure: For DLL4 binding kinetic measurements the assay buffer was HBS-EPB: 10 mM Hepes, pH7.5, 150 mM NaCl, 3 mM EDTA, 0.005% Tween 20, 0.1 mg/ml BSA (Sigma A7906). For VEGF binding kinetic measurements the assay buffer was HBS-EP+(3N01B): 10 mM Hepes, pH7.5, 300 mM NaCl, 3 mM EDTA, 0.05% Tween 20, 0.1 mg/ml BSA (Sigma A7906). For example, approximately 9000 RU of goat anti-human Fc specific polyclonal antibody (Thermo Fisher Scientific Inc., Rockford, Ill.) diluted in 10 mM sodium acetate (pH 4.5) is directly immobilized across a CM5 research grade biosensor chip using a standard amine coupling kit according to manufacturer's instructions and procedures at 25 ug/ml. Unreacted moieties on the biosensor surface are blocked with ethanolamine. For kinetic analysis, rate equations derived from the 1:1 Langmuir binding model are fitted simultaneously to multiple antigen injections (using global fit analysis) with the use of Scrubber 2 (BioLogic Software), Biacore Biaevaluation 4.0.1 software or Biacore T100 Evaluation software. Purified antibodies are diluted in running buffer for capture across goat anti-human Fc reaction surfaces. Antibodies to be captured as a ligand (1 ug/ml) are injected over reaction matrices at a flow rate of 10 ul/min. During the assay, all measurements are referenced against the capture surface alone (i.e. with no captured antibody). […] The equilibrium dissociation constant KD (M) of the reaction between antibodies and the target antigen is then calculated from the kinetic rate constants by the following formula: KD=Koff/Kₒₙ. Binding is recorded as a function of time and kinetic rate constants are calculated.

[2] = target: T1, purified recombinant human DLL4 …; assay: Notch competition ELISA: inhibition of biotin DLL4 ECD binding to coated human Notch-1
Procedure: Plates were then washed 3× with wash buffer (PBS, 0.05% Tween-20) and blocked with 200 μl/well blocking buffer (D-PBS, 1% BSA, 1 mM CaCl₂, 0.05% Tween-20) for 1 hour at 25° C. […] Assay plates were washed after blocking, and incubated with DLL4/antibody mixtures (100 μl/well, 1 hour at 25° C. with shaking). Plates were washed again and 100 μl/well of streptavidin conjugated with HRP (Fitzgerald #65R-S104PHRPx, diluted 1:5,000 in blocking buffer) was added for 1 hour at 25° C. with shaking. After a final wash, plates were developed using 100 μl/well substrate (TMB Sigma #T8665), and the reaction was stopped using 100 μl/well 1N HCl, and the absorbance was read at 450 nm. Data was analyzed using Graphpad Prism software and IC₅₀ values were reported as the concentration of antibody required to achieve 50% reduction of DLL4 binding to Notch1.

[3] = target: human DLL4, full-length, expressed on HEK293G cells (human, UniProt Q9NR61 27-685); assay: cell-based or functional assay

B1: Av-GS10-h1A11.1 (bispecific antibody, human IgG1)
VH: EVQLVESGGGLVQPGGSLRLSCAASGYTFTNYGMNWVRQAPGKGLEWVGWINTYTGEPTYAADFKRRFTFSLDTSKSTAYLQMNSLRAEDTAVYYCAKYPHYYGSSHWYFDVWGQGTLVTVSSGGGGSGGGGSEVQLVESGGGLVQPGGSLRLSCAASGFTFSNFPMAWVRQAPGKGLEWVATISSSDGTTYYRDSVKGRFTISRDNAKNSLYLQMNSLRAEDTAVYYCARGYYNSPFAYWGQGTLVTVSS
VL: DIQMTQSPSSLSASVGDRVTITCSASQDISNYLNWYQQKPGKAPKVLIYFTSSLHSGVPSRFSGSGSGTDFTLTISSLQPEDFATYYCQQYSTVPWTFGQGTKVEIKRGGSGGGGSGDIQMTQSPSSLSASVGDRVTITCRASEDIYSNLAWYQQKPGKAPKLLIYDTNNLADGVPSRFSGSGSGTDFTLTISSLQPEDFATYYCQQYNNYPPTFGQGTKLEIKR
notes: DVD-Ig
Kd [1]: 29 nM
IC50 [2]: 1.5 nM

B2: Av-GS14-h1A11.1 (bispecific antibody, human IgG1)
VH: EVQLVESGGGLVQPGGSLRLSCAASGYTFTNYGMNWVRQAPGKGLEWVGWINTYTGEPTYAADFKRRFTFSLDTSKSTAYLQMNSLRAEDTAVYYCAKYPHYYGSSHWYFDVWGQGTLVTVSSGGGGSGGGGSGGGGEVQLVESGGGLVQPGGSLRLSCAASGFTFSNFPMAWVRQAPGKGLEWVATISSSDGTTYYRDSVKGRFTISRDNAKNSLYLQMNSLRAEDTAVYYCARGYYNSPFAYWGQGTLVTVSS
VL: DIQMTQSPSSLSASVGDRVTITCSASQDISNYLNWYQQKPGKAPKVLIYFTSSLHSGVPSRFSGSGSGTDFTLTISSLQPEDFATYYCQQYSTVPWTFGQGTKVEIKRGGSGGGGSGGGSDIQMTQSPSSLSASVGDRVTITCRASEDIYSNLAWYQQKPGKAPKLLIYDTNNLADGVPSRFSGSGSGTDFTLTISSLQPEDFATYYCQQYNNYPPTFGQGTKLEIKR
notes: DVD-Ig
Kd [1]: 34 nM
IC50 [2]: 1.54 nM

B5: Av-GS6-h1A11.1 (bispecific antibody, human IgG1)
VH: EVQLVESGGGLVQPGGSLRLSCAASGYTFTNYGMNWVRQAPGKGLEWVGWINTYTGEPTYAADFKRRFTFSLDTSKSTAYLQMNSLRAEDTAVYYCAKYPHYYGSSHWYFDVWGQGTLVTVSSGGGGSGEVQLVESGGGLVQPGGSLRLSCAASGFTFSNFPMAWVRQAPGKGLEWVATISSSDGTTYYRDSVKGRFTISRDNAKNSLYLQMNSLRAEDTAVYYCARGYYNSPFAYWGQGTLVTVSS
VL: DIQMTQSPSSLSASVGDRVTITCSASQDISNYLNWYQQKPGKAPKVLIYFTSSLHSGVPSRFSGSGSGTDFTLTISSLQPEDFATYYCQQYSTVPWTFGQGTKVEIKRGGSGGDIQMTQSPSSLSASVGDRVTITCRASEDIYSNLAWYQQKPGKAPKLLIYDTNNLADGVPSRFSGSGSGTDFTLTISSLQPEDFATYYCQQYNNYPPTFGQGTKLEIKR
notes: DVD-Ig
Kd [1]: 50 nM
IC50 [2]: 3.41 nM

B6: Av-LS-h1A11.1 (bispecific antibody, human IgG1)
VH: EVQLVESGGGLVQPGGSLRLSCAASGYTFTNYGMNWVRQAPGKGLEWVGWINTYTGEPTYAADFKRRFTFSLDTSKSTAYLQMNSLRAEDTAVYYCAKYPHYYGSSHWYFDVWGQGTLVTVSSASTKGPSVFPLAPEVQLVESGGGLVQPGGSLRLSCAASGFTFSNFPMAWVRQAPGKGLEWVATISSSDGTTYYRDSVKGRFTISRDNAKNSLYLQMNSLRAEDTAVYYCARGYYNSPFAYWGQGTLVTVSS
VL: B5 VL with G109T, G110V, S111A, G112A, G113P
notes: DVD-Ig
IC50 [2]: 2.77 nM

B10: Av-LL-h1A11.1 (bispecific antibody, human IgG1)
VH: B6 VH
VL: DIQMTQSPSSLSASVGDRVTITCSASQDISNYLNWYQQKPGKAPKVLIYFTSSLHSGVPSRFSGSGSGTDFTLTISSLQPEDFATYYCQQYSTVPWTFGQGTKVEIKRTVAAPSVFIFPPDIQMTQSPSSLSASVGDRVTITCRASEDIYSNLAWYQQKPGKAPKLLIYDTNNLADGVPSRFSGSGSGTDFTLTISSLQPEDFATYYCQQYNNYPPTFGQGTKLEIKR
notes: DVD-Ig
IC50 [2]: 2.43 nM

Results, then the binder that gave them:

IC50 (nM), DLL4-Notch reporter assay, h1A11.1 + Av mixture, 0 nM VEGF [3]: 8.64 nM and 9.17 nM
IC50 (nM), DLL4-Notch reporter assay, h1A11.1 + Av mixture, 6 nM BSG2 (negative control protein) present [3]: 9.55 nM
IC50 (nM), DLL4-Notch reporter assay, h1A11.1 + Av mixture, 6 nM VEGF present [3]: 9.97 nM
IC50 (nM), DLL4-Notch reporter assay, h1A11.1 + Av mixture, 150 nM BSG2 (negative control protein) present [3]: 10.9 nM
IC50 (nM), DLL4-Notch reporter assay, h1A11.1 + Av mixture, 150 nM VEGF present [3]: 10.3 nM
B3: h1A11.1 humanized anti-DLL4 mAb (antibody, V domains shown)
VH: EVQLVESGGGLVQPGGSLRLSCAASGFTFSNFPMAWVRQAPGKGLEWVATISSSDGTTYYRDSVKGRFTISRDNAKNSLYLQMNSLRAEDTAVYYCARGYYNSPFAYWGQGTLVTVSS
VL: DIQMTQSPSSLSASVGDRVTITCRASEDIYSNLAWYQQKPGKAPKLLIYDTNNLADGVPSRFSGSGSGTDFTLTISSLQPEDFATYYCQQYNNYPPTFGQGTKLEIKR

Kd [1]: 9.3 nM
IC50 [2]: 0.65 nM
B4: h1A11.1-GS10-Av (bispecific antibody, human IgG1)
VH: EVQLVESGGGLVQPGGSLRLSCAASGFTFSNFPMAWVRQAPGKGLEWVATISSSDGTTYYRDSVKGRFTISRDNAKNSLYLQMNSLRAEDTAVYYCARGYYNSPFAYWGQGTLVTVSSGGGGSGGGGSEVQLVESGGGLVQPGGSLRLSCAASGYTFTNYGMNWVRQAPGKGLEWVGWINTYTGEPTYAADFKRRFTFSLDTSKSTAYLQMNSLRAEDTAVYYCAKYPHYYGSSHWYFDVWGQGTLVTVSS
VL: DIQMTQSPSSLSASVGDRVTITCRASEDIYSNLAWYQQKPGKAPKLLIYDTNNLADGVPSRFSGSGSGTDFTLTISSLQPEDFATYYCQQYNNYPPTFGQGTKLEIKRGGSGGGGSGDIQMTQSPSSLSASVGDRVTITCSASQDISNYLNWYQQKPGKAPKVLIYFTSSLHSGVPSRFSGSGSGTDFTLTISSLQPEDFATYYCQQYSTVPWTFGQGTKVEIKR
notes: DVD-Ig; also called h1A11.GS10-Av

IC50 [2]: 7.38 nM
B7: Av-SL-h1A11.1 (bispecific antibody, human IgG1)
VH: B5 VH with G124A, G125S, G126T, G127K, S128G, G129P
VL: B10 VL
notes: DVD-Ig

IC50 [2]: 3500 nM
B8: Av-SS-h1A11.1 (bispecific antibody, human IgG1)
VH: B5 VH with G124A, G125S, G126T, G127K, S128G, G129P
VL: B5 VL with G109T, G110V, S111A, G112A, G113P
notes: DVD-Ig

Kd [1]: 9.7 nM
IC50 [2]: 0.68 nM
B9: h1A11.1-GS14-Av (bispecific antibody, human IgG1)
VH: EVQLVESGGGLVQPGGSLRLSCAASGFTFSNFPMAWVRQAPGKGLEWVATISSSDGTTYYRDSVKGRFTISRDNAKNSLYLQMNSLRAEDTAVYYCARGYYNSPFAYWGQGTLVTVSSGGGGSGGGGSGGGGEVQLVESGGGLVQPGGSLRLSCAASGYTFTNYGMNWVRQAPGKGLEWVGWINTYTGEPTYAADFKRRFTFSLDTSKSTAYLQMNSLRAEDTAVYYCAKYPHYYGSSHWYFDVWGQGTLVTVSS
VL: DIQMTQSPSSLSASVGDRVTITCRASEDIYSNLAWYQQKPGKAPKLLIYDTNNLADGVPSRFSGSGSGTDFTLTISSLQPEDFATYYCQQYNNYPPTFGQGTKLEIKRGGSGGGGSGGGGSDIQMTQSPSSLSASVGDRVTITCSASQDISNYLNWYQQKPGKAPKVLIYFTSSLHSGVPSRFSGSGSGTDFTLTISSLQPEDFATYYCQQYSTVPWTFGQGTKVEIKR
notes: DVD-Ig
